± gives the uncertainty stated by the source.

The data set is described as follows: amyloid nucleation score (Sup35N fusion, yeast selection) (log enrichment); library NNK3; higher = more nucleation; inactive = no reads after selection. In outline:
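DiMSum was used to calculate nucleation scores as log enrichment of output over input reads, centred on the mode score of non-aggregating sequences. Sequences with fewer than 100 input reads were not scored. Input and output came from Illumina sequencing of plasmid inserts in psi-negative yeast expressing peptides of 20 random codons fused to Sup35N, induced 24 hours with 100 μM copper sulfate and then grown 7 days at 30°C on medium lacking adenine and uracil.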
As to FEVIFYSGYAYLACPRRQCH, the amyloid nucleation score result is “inactive”. Take FFFVDMYWSDCLKDLLL: the amyloid nucleation score entry was “inactive”. For the substance FFKICFRAKYIGNLSPLLK, the amyloid nucleation score entry is “inactive”. In the case of FFLAGLFCAISV, the amyloid nucleation score entry was “inactive”. Regarding FFLNLKDMFDHAL, the amyloid nucleation score result is “inactive”.

With FFLYLSKRLCVFCRCTYLGL, the amyloid nucleation score result is “inactive”. For the substance FFNKREKDVFSNHRQYGYWN, the amyloid nucleation score entry was “inactive”. For the substance FFPFPKFWAGIVIAFY, the amyloid nucleation score result was “inactive”.

Turning to FFRRSRYEYKSFGVNNVMNG, the amyloid nucleation score result was “inactive”.

On to FFSAPMNEVKTGTILKGFVC, for which the amyloid nucleation score entry was “inactive”. On to FFSASQRVAY, for which the amyloid nucleation score entry is “inactive”.

As to FFVIRLNPTSLNCVFSWYLL, the amyloid nucleation score entry is “inactive”.

In the case of FFVSDKLVFSNTLLQKNKSP, the amyloid nucleation score was 0.881 ± 0.19. Take FFVVC: the amyloid nucleation score result is “inactive”. FFWECYRQINCSINW: the amyloid nucleation score result is “inactive”.

Turning to FGAAFQNYVKFPVPKMFTCH, the amyloid nucleation score entry is “inactive”. As to FGADSDQHLRRLLGAEGWCR, the amyloid nucleation score result is “inactive”. Regarding FGANHKQVSWWDRMLSGTVR, the amyloid nucleation score entry was “inactive”. FGEFKDCQGFSKF: the amyloid nucleation score entry was “inactive”. The same measure for FGEYVIRMSNCTLPKIMVIP: “inactive”; for FGFFWP: “inactive”. FGQYWKRCTTCLCGWPTGIG: the amyloid nucleation score result is “inactive”.

Turning to FGRYPMYIASLITNSKVFGC, the amyloid nucleation score is -0.709 ± 0.41. Turning to FGSGRVSQLVRYDSFLEEFL, the amyloid nucleation score entry was “inactive”. Take FGSPYWLAYIV: the amyloid nucleation score entry is “inactive”.

In the case of FGTDDEDVKCNVMTALCRIW, the amyloid nucleation score entry is “inactive”. For the substance FGTLSQVHIH, the amyloid nucleation score result was “inactive”. As to FGTSSEF, the amyloid nucleation score entry is “inactive”. To FGVCSLFESCIVSFNIVRRL belongs “inactive”; to FGVQVWLMLFLGNVYIWMVM, “inactive”. As for FGVVDYARRSWGYGSCGGHV, the amyloid nucleation score entry is “inactive”. With FHIGLSITVT, the amyloid nucleation score entry is “inactive”. Turning to FHLYNVW, the amyloid nucleation score entry is “inactive”. In the case of FHWYFLCLAFLG, the amyloid nucleation score worked out at 0.398 ± 0.3. To FICERMRRIVESNVDLLGFY belongs -0.359 ± 0.32. FICILIISKGSIVPFFLRHR: the amyloid nucleation score entry is “inactive”. FIGQGTNWYPYSVGANVSHH registered an amyloid nucleation score of -0.241 ± 0.8. As for FILRLVEVSNFCTRYRNAYS, the amyloid nucleation score result was “inactive”.

In the case of FILSAGSLHQLGRLVES, the amyloid nucleation score entry was “inactive”. As for FIMMRIMSFPISHVCV, the amyloid nucleation score came to 0.708 ± 0.27. Consider FIRARLLRHHTLARNAYVLR, for which the amyloid nucleation score entry was “inactive”. For FISDRGGLVRMNYPPRHW, the amyloid nucleation score result was “inactive”.

As for FISGVYMKCIGCSS, the amyloid nucleation score entry was “inactive”. Take FISINTPPCLCMS: the amyloid nucleation score entry is “inactive”. For FITTCRILWVRCTGIVNDFL, the amyloid nucleation score result is “inactive”. Regarding FIWTFK, the amyloid nucleation score stood at 1.35 ± 0.092. As for FIYAC, the amyloid nucleation score result is “inactive”. Take FKAMLD: the amyloid nucleation score entry is “inactive”. Turning to FKIEDQYNLMHRVFLVSNGG, the amyloid nucleation score result is “inactive”.

On to FKIMD, for which the amyloid nucleation score result is “inactive”. For FKKSLYVLSDFSVLYSMCSW, the amyloid nucleation score entry is “inactive”. FKSLHTGVQRNTLCARSRTF: the amyloid nucleation score entry was “inactive”.

Turning to FKVAH, the amyloid nucleation score entry is “inactive”. The same measure for FKVNGFSATILIFKQV: “inactive”.

The record behind these values is the supplement of paper PMC12042874.
